Paper PMC2192141

B1: MOCT (mutant octamer) (dsDNA)
DNA 1: AGAGTAATTGATGGGCATTTTAATGG
DNA 2: CCATTAAAATGCCCATCAATTACTCT
B2: MIS (mutant D box) (dsDNA)
DNA 1: ATCTCAAAATATGGGTCTGATTGGCCA
DNA 2: TGGCCAATCAGACCCATATTTTGAGAT

Molecular target: HMG I/Y (recombinant HMG I) (UniProt P17096 1-107)
Assay: EMSA

HMG I/Y (recombinant HMG I), sequence (P17096 whole entry): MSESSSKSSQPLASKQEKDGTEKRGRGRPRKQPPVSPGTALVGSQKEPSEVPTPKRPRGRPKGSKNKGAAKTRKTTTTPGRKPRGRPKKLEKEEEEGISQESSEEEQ

Binder | binding result
B1 | no binding
B2 | no binding
